Assay results reported in patent US20200010836A1, “Regulation of Gene Expression by Aptamer-Mediated Accessibility of Polyadenylation Signals” (MEIRAGTX, UK II Limited, priority 2017, published 2020).

How the values were obtained:
Assay type in all cases: cell-based
EGFP expression = test: GFP fluorescence of HEK 293 cells transfected with pEGFP riboswitch constructs, treated with guanine; conditions: 500 μM guanine vs NaOH solvent control
Procedure: (§1) Transfection and aptamer ligand treatment: 3.5×10^4 HEK 293 cells were plated in a 96-well flat bottom plate the day before transfection. Plasmid DNA (500 ng) was added to a tube or a 96-well U-bottom plate. Separately, TransIT-293 reagent (Minis; 1.4 μl) was added to 50 μl opti-mem I media (Life Technologies), and allowed to sit for 5 minutes at room temperature (“RT”). Then, 50 μl of this diluted transfection reagent was added to the DNA, mixed, and incubated at RT for 20 min. Finally, 7 μl of this solution was added to a well of cells in a 96-well plate. Four hours after transfection, the media was aspirated, and new media was added with (i) DMSO (0.5%) or 500 μM guanosine; or (ii) NaOH (2 mM) as solvent control or 500 μM guanine. The induction fold was expressed as the quotient of luciferase activity obtained in the presence of aptamer ligand divided by the value obtained in the absence of the aptamer ligand.
Transfection and measurement of GFP fluorescence: 3.5×10^4 HEK 293 cells were plated in 96-well flat bottom plate the day before transfection. […] GFP fluorescence intensity was measured by Tecan plate reader, using Excitation wavelength at 484 nm, Emission wavelength at 510 nm and Excitation bandwidth at 5 nm. The GFP fluorescence intensity was expressed as the value generated by GFP constructs subtracted by the value generated by cells without transfection.

luciferase expression [1] = test: Firefly luciferase assay of HEK 293 cells transfected with riboswitch constructs, treated with guanosine or guanine; conditions: absence of guanine treatment
Procedure: as §1
(§2) Firefly luciferase assay of cultured cells: Twenty-four hours after media change, plates were removed from the incubator, and equilibrated to RT for several minutes on a lab bench, then aspirated. Glo-lysis buffer (Promega, […]) was added, and the plates allowed to remain at RT for at least 5 minutes. Then, the well contents were mixed by 50 μL trituration, and 20 μL of each sample was mixed with 20 μL of bright-glo reagent (Promega) that had been diluted to 10% in glo-lysis buffer. 96 wells were spaced on an opaque white 384-well plate. Following a 5-min incubation at RT, luminescence was measured using Tecan machine with 500 mSec read time. The luciferase activity was expressed as mean relative light unit (RLU)±S.D.

luciferase expression [2] = test: Firefly luciferase assay of HEK 293 cells transfected with adenine aptamer construct, treated with adenine
Procedure: as §1, §2
Four hours after transfection, the media was aspirated, and new media with NaOH (1 mM) or 1 mM adenine (Calbiochem) was added. The induction fold was expressed as the quotient of luciferase activity obtained in the presence of aptamer ligand divided by the value obtained in the absence of the aptamer ligand.

B1: ATA_Gua_2: SEQ ID NO: 2; xpt-guanine aptamer linked to 10 bp stem-loop embedding AATAAA; also used in pEGFP vector (nucleic acid)
DNA: AAGGCCAAGAAGGGCGGAAAGATCGCCGTGTAAGCCATACCACATTTGTAGAGGTTTTACTTGCTTTAAAAAACCTCCCACACCTCCCCCTGAACCTGAAACATAAAATGAATGCAATTGTTGTTGTTAACTTGTTTATTGCAGCTTATAATGGTTACAAATAAAGCAATAGCATCACAAATTTCACATAAAGCATAATCGCGTGGATATGGCACGCAAGTTTCTACCGGGCACCGTAAATGTCCGACTGCTTTATTTCGAAAGAAATAAAGCATTTTTTTCACTGCATTCTAGTTGTGGTTTGTCCAAACTCATCAATGTATCTTAACGCGT
B1 was tested, and the “fold increase in GFP expression on guanine treatment” value (EGFP expression) was 1.5 fold.

B2: ATA_Gua_4: SEQ ID NO: 4; xpt-guanine aptamer linked to 14 bp stem-loop embedding AATAAA; also used in pEGFP vector (nucleic acid)
DNA: AAGGCCAAGAAGGGCGGAAAGATCGCCGTGTAAGCCATACCACATTTGTAGAGGTTTTACTTGCTTTAAAAAACCTCCCACACCTCCCCCTGAACCTGAAACATAAAATGAATGCAATTGTTGTTGTTAACTTGTTTATTGCAGCTTATAATGGTTACAAATAAAGCAATAGCATCACAAATTTTAAAGCAATAATCGCGTGGATATGGCACGCAAGTTTCTACCGGGCACCGTAAATGTCCGACTTGCTTTATTTGTGCGAAAGCACAAATAAAGCATTTTTTTCACTGCATTCTAGTTGTGGTTTGTCCAAACTCATCAATGTATCTTAACGCGT
B2 was tested, and the “fold increase in GFP expression on guanine treatment” value (EGFP expression) was 1.6 fold and the “basal level luciferase expression, % of the pFLuc control vector” value (luciferase expression [1]) was 16%.

B3: DSE_Gua_1: SEQ ID NO: 5; xpt-guanine aptamer linked to 3′ end of 9 bp stem-loop embedding DSE of SV40 early polyA (nucleic acid)
DNA: AAGGCCAAGAAGGGCGGAAAGATCGCCGTGTAAGCCATACCACATTTGTAGAGGTTTTACTTGCTTTAAAAAACCTCCCACACCTCCCCCTGAACCTGAAACATAAAATGAATGCAATTGTTGTTGTTAACTTGTTTATTGCAGCTTATAATGGTTACAAATAAAGCAATAGCATCACAAATTTCACAAATAAAGCATTTTTTTCACTGCATTCTAGTTGTGGTTTGTCCGAAAGGACAAACCATAATCGCGTGGATATGGCACGCAAGTTTCTACCGGGCACCGTAAATGTCCGACTGGTTTGTAAACTCATCAATGTATCTTAACGCGT
B3 was tested, and the “basal luciferase expression reduced by % versus control construct pFLuc” value (luciferase expression [1]; given as 'reduced by') was 35%.

B4: ATA_Ydhl: SEQ ID NO: 17; adenine aptamer ydhl-A linked to 9 bp TTCG stem-loop embedding AATAAA, P1 stem 10 bp (nucleic acid)
DNA: AAGGCCAAGAAGGGCGGAAAGATCGCCGTGTAAGCCATACCACATTTGTAGAGGTTTTACTTGCTTTAAAAAACCTCCCACACCTCCCCCTGAACCTGAAACATAAAATGAATGCAATTGTTGTTGTTAACTTGTTTATTGCAGCTTATAATGGTTACAAATAAAGCAATAGCATCACAAATTTCAATAAAGGTATAACCTCAATAATATGGTTTGAGGGTGTCTACCAGGAACCGTAAAATCCTGATTACCTTTATTTCTTCGGAAATAAAGCATTTTTTTCACTGCATTCTAGTTGTGGTTTGTCCAAACTCATCAATGTATCTTAACGCGT
In the case of B4, the “luciferase expression in the presence of adenine, % of the control pFLuc construct in the presence of adenine” value (luciferase expression [2]; 1 mM adenine) is reported as “approximately 82%”, the “fold increase in luciferase expression on adenine treatment” value (luciferase expression [2]; 1 mM adenine vs NaOH solvent control) is reported as 4.0 fold and the “luciferase level in the absence of adenine, % of the control pFLuc construct” value (luciferase expression [2]; absence of adenine treatment) is reported as “approximately 52%”.
